Test results: US20130323252A1 (Novartis, published 2013)
Values belong to the molecule of their own block, whether it stands above or below them. Positions of bridges follow the written chain, without caps; N, C: chain ends. No end group written: not given here.

Experiments:
[1] = target: TMEM16A-GFP fusion protein on HEK293 stable cells (UniProt Q5XXA6); test: flow cytometry on HEK293-TMEM16A cells
[2] = target: SP31 (ab64085) Abcam rabbit monoclonal antibody against human TMEM16A; test: peptide pre-incubation of the antibody, western blot of TMEM16A
[3] = target: T1, linear peptide 45_ECD1-3 (human); test: peptide microarray, linear peptide, Cy5 anti-rat IgG detection
T1 peptide: SRYKDYREPPWSENK
Description: (§1) Both set of peptides were printed on microarray slides in triplicate, incubated with the antibody of interest (12E11) and control antibodies. One is an incubation with an unrelated antibody from the same isotype (rat control IgG2b), the second using only the secondary antibody (anti-rat IgG (H+L) (JIR, 212-175-082) (Label Cy5)) to assess unspecific binding due to the detection antibody. The experiments are performed essentially as described in Maksimov P, et al. 2012, PLoS One 7:e34212. doi:10.1371/journal.pone. 0034212.
(§2) The determination of peptide-antibody binding was performed by RepliTope-analysis where the peptide microarray (triplicate) was incubated with the primary antibody followed by a fluorescently labelled secondary antibody directed against the Fc-part of the primary one. All steps were performed on a TECAN microarray processing station enabling highly reliable and reproducible washing and incubation steps. After performing the incubation steps and subsequent to the final washing steps (to remove the unbound secondary antibodies) the microarrays were dried using a nitrogen stream and scanned in a high resolution microarray scanning system with appropriate wavelength settings. Control incubations were performed with an unrelated antibody having the same isotype to exclude false positive signals.
(§3) The resulting images were analyzed and quantified using spot-recognition software GenePix (Molecular Devices). For each spot, the mean signal intensity was extracted (between 0 and 65535 arbitrary units). For further data evaluation, the MMC2 values were determined. The MMC2 equals the mean value of all three instances on the microarray. Except the coefficient of variation (CV)—standard-deviation divided by the mean value—is larger 0.5, in this case the mean of the two closest values (MC2) is assigned to MMC2.

[4] = target: T2, linear peptide 44_ECD1-3 (human); test: as above
T2 peptide: VQISRYKDYREPPWS
Description: as §1, §2, §3

[5] = target: T3, linear peptide 46_ECD1-3 (human); test: as above
T3 peptide: KDYREPPWSENKYDI
Description: as §1, §2, §3

[6] = target: T4, cyclic peptide 45_ECD1-3 cys (human, disulfide 1-17 (inferred)); test: peptide microarray, cyclic peptide, Cy5 anti-rat IgG detection
T4 construct: Same 15-mer as linear peptide 45, flanked by cysteines; also called Peptide 45 (cyclic)
T4 peptide: CSRYKDYREPPWSENKC
Description: as §1, §2, §3

[7] = target: T5, cyclic peptide 44_ECD1-3 cys (human, disulfide 1-17 (inferred)); test: as above
T5 construct: Same 15-mer as linear peptide 44, flanked by cysteines; also called Peptide 44 (cyclic)
T5 peptide: CVQISRYKDYREPPWSC
Description: as §1, §2, §3

[8] = target: T6, cyclic peptide 46_ECD1-3 cys (human, disulfide 1-17 (inferred)); test: as above
T6 construct: Same 15-mer as linear peptide 46, flanked by cysteines; also called peptide 46 (cyclic)
T6 peptide: CKDYREPPWSENKYDIC
Description: as §1, §2, §3

TMEM16A-GFP fusion protein on HEK293 stable cells, sequence (Q5XXA6 whole entry, the tested form may be a part): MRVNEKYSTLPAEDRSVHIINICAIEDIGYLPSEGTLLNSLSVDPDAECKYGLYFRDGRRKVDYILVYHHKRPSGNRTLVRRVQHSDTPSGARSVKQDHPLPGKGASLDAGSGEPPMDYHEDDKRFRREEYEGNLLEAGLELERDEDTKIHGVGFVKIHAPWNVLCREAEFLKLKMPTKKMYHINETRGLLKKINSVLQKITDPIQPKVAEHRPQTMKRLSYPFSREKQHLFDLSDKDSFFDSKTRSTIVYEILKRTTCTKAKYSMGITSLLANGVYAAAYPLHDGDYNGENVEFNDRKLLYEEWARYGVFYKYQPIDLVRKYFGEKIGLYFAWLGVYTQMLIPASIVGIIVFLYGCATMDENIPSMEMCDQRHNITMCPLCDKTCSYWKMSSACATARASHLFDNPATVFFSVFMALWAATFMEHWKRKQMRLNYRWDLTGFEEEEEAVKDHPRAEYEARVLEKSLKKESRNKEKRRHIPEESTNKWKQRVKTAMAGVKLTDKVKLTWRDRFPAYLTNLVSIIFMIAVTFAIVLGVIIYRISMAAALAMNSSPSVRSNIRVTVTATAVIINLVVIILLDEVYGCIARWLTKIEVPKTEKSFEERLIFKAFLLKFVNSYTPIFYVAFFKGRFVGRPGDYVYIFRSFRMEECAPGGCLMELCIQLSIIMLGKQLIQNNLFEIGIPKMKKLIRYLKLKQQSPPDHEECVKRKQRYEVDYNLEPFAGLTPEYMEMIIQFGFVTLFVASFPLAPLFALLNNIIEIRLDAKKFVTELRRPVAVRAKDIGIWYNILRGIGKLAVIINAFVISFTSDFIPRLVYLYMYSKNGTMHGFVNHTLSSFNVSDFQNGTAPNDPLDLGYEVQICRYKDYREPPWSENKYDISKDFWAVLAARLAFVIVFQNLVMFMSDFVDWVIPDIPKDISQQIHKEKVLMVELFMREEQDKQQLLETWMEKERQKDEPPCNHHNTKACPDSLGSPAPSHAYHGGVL

median fluorescence intensity [1]: 93
Molecule: isotype control antibody (control for 12E11 in flow cytometry)

peptide concentration that effectively blocked [2]: 0.01 µg/mL
Molecule: DHEECVKRKQRYEVDYNLE [blocking Peptide #2]

Signal intensity after subtraction of control signal (AU) [3]: 27300 AU | Signal intensity after subtraction of control signal (AU) [4]: 36800 AU | Signal intensity after subtraction of control signal (AU) [5]: 15100 AU | Signal intensity after subtraction of control signal (AU) [6]: 56600 AU | Signal intensity after subtraction of control signal (AU) [7]: 55900 AU | Signal intensity after subtraction of control signal (AU) [8]: 24800 AU
B1: 12E11 TMEM16A antibody (antibody, V domains shown)
VH: QVQLKESGPGLVQPSQTLTLTCTVSGFSLSNYDMHWVRQSPGKGLDWMGVIWGNGKTQYNSGLTSRLSISRDTSKSQVFLKMNSLQTEDTAIYFCTRSGYYYDGSYYSLFDYWGQGVMVTVSS
VL: DVVLTQTPPTLSATIGQSVSISCRSSQSLLHSNGNTYLNWLLQRPGQPPQLLIYLVSRLESGVPNRFSGSGSGTDFTLKISGVEAEDLGVYYCVQSTHAPAFGGGTKLELK
notes: Rat hybridoma monoclonal made by genetic immunization; The same-isotype control was rat IgG2b, which implies a rat IgG2b constant region
